The results in this text go back to article PMC9234707 (2022).

B1: BMP10 (protein)
chain 1: AKGNYCKRTPLYIDFKEIGWDSWIIAPPGYEAYECRGVCNYPLAEHLTPTKHAIIQALVHLKNSQKASKACCVPTKLEPISILYLDKGVVTYKFKYEGMAVSECGCR
chain 2: B1 chain 1
B2: GDF11 (protein)
chain 1: GLDCDEHSSESRCCRYPLTVDFEAFGWDWIIAPKRYKANYCSGQCEYMFMQKYPHTHLVQQANPRGSAGPCCTPTKMSPINMLYFNDKQQIIYGKIPGMVVDRCGCS
chain 2: B2 chain 1
B3: Nodal (protein)
chain 1: DRSQLCRKVKFQVDFNLIGWGSWIIYPKQYNAYRCEGECPNPVGEEFHPTNHAYIQSLLKRYQPHRVPSTCCAPVKTKPLSMLYVDNGRVLLDHHKDMIVEECGCL
chain 2: B3 chain 1
B4: ActivinB (protein)
chain 1: GLECDGRTNLCCRQQFFIDFRLIGWNDWIIAPTGYYGNYCEGSCPAYLAGVPGSASSFHTAVVNQYRMRGLNPGTVNSCCIPTKLSTMSMLYFDDEYNIVKRDVPNMIVEECGCA
chain 2: B4 chain 1
B5: BMP15 (protein)
chain 1: PENNQCSLHPFQISFRQLGWDHWIIAPPFYTPNYCKGTCLRVLRDGLNSPNHAIIQNLINQLVDQSVPRPSCVPYKYVPISVLMIEANGSILYKEYEGMIAESCTCR
chain 2: B5 chain 1

Sequence of ACVR2A (P27037 26-118): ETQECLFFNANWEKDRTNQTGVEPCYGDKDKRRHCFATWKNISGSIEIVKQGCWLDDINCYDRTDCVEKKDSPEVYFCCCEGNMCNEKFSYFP

This experiment concerns the target ACVR2A (Homo sapiens (Human), UniProt P27037). Put plainly: SPR, receptor-Fc dimer captured (avidity), single 80 nM injections. A general note: SPR reads the build-up and loss of mass on a sensor chip optically.
Molecule B1 returned a Kd of 1 nM.

For B2, the Kd was 0.052 nM.

The molecule B3 had a Kd of more than 80 nM.

Consider B4, for which the Kd came to 0.053 nM.

B5 came in with a Kd of more than 80 nM.
